Test in all cases: FRET or BRET
One assay has as its target T1, CFP-Rem(1-275) (mouse, UniProt O35929 1-275).
T1 sequence (looked up): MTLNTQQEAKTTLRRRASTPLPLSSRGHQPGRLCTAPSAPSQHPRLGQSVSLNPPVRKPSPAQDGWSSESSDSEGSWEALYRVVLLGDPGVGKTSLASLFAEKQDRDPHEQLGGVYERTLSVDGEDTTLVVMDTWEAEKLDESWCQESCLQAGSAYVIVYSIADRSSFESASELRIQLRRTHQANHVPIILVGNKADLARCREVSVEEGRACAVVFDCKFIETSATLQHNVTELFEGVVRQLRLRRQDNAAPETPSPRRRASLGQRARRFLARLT

The next assay concerns the target T2, CFP-Rem(224-297) (mouse, UniProt O35929 224-297).
T2 sequence (looked up): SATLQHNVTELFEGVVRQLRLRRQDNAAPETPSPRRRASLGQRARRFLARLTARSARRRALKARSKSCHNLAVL

Another assay concerns the target T3, CFP-Rem(1-285) (mouse, UniProt O35929 1-285).
T3 sequence (looked up): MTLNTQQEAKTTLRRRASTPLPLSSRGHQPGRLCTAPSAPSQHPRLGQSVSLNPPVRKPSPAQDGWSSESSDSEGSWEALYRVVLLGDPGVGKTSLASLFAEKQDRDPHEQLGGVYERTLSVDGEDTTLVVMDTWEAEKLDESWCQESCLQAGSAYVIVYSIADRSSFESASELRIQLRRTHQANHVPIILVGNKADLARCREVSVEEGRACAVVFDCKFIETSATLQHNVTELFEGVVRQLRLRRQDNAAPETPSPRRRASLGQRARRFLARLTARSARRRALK

B1: YFP-tagged alpha1C N-terminus (domain or fragment)
chain: not shown
As to B1, the FRET efficiency with CFP-Rem(1-275) stood at 0.04; with CFP-Rem(224-297) it was 0.439; in the assay with CFP-Rem(1-285), 0.071.
